{"source": "patent US11175293", "about": "(UNIVERSITY OF UTAH RESEARCH FOUNDATION, dated 2021)", "target": "T1, NanoSpike", "T1 construct": "also called IH4vs2-Spike", "assay": "flow cytometry on human whole blood, detected with FITC-conjugated anti-Strep-tag antibodies", "data": [{"binder": "Glycophorin A (GYPA) on the surface of human red blood cells (other, whole, on cells; also called GPA; RBC) LSTTEVAMHTSTSSSVTKSYISSQTNDTHKRDTYAATPRAHEVSEISVRTVYPPEEETGERVQLAHHFSEPEITLIIFGVMAGVIGTILLISYGIRRLIKKSPSDVKPLPSPDTDVPLSSVEIENPETSDQ", "values": [{"measurement": "binding result", "result": "binds"}]}]}
